Test results: paper PMC11327267 (Nature Communications, 2024)
Values belong to the binder of their own block, whether it stands above or below them.

Target: T1, human FIGNL1ΔN (fidgetin-like 1 in which the N-terminal 284 aa were deleted) (human, UniProt Q6PIW4 285-674)
T1 sequence: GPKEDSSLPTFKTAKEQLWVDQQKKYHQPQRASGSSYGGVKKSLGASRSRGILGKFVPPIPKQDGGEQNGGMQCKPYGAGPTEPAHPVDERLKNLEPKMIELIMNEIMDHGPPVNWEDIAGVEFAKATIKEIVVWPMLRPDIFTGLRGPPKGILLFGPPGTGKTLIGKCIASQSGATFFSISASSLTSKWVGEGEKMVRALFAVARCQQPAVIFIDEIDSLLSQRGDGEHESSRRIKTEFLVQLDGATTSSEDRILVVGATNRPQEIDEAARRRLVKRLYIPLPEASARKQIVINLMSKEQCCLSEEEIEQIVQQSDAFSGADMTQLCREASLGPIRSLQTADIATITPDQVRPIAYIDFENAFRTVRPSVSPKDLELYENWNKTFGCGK
Assay: native gel or EMSA

- binding result: binds
B1: human RAD51 (natural protein)
chain: MAMQMQLEANADTSVEEESFGPQPISRLEQCGINANDVKKLEEAGFHTVEAVAYAPKKELINIKGISEAKADKILAEAAKLVPMGFTTATEFHQRRSEIIQITTGSKELDKLLQGGIETGSITEMFGEFRTGKTQICHTLAVTCQLPIDRGGGEGKAMYIDTEGTFRPERLLAVAERYGLSGSDVLDNVAYARAFNTDHQTQLLYQASAMMVESRYALLIVDSATALYRTDYSGRGELSARQMHLARFLRMLLRLADEFGVAVVITNQVVAQVDGAAMFAADPKKPIGGNIIAHASTTRLYLRKGRGETRICKIYDSPCLPEAEAMFAINADGVGDAKD

- binding result: binds
B2: human DMC1 (natural protein)
chain: MKEDQVVAEEPGFQDEEESLFQDIDLLQKHGINVADIKKLKSVGICTIKGIQMTTRRALCNVKGLSEAKVDKIKEAANKLIEPGFLTAFEYSEKRKMVFHITTGSQEFDKLLGGGIESMAITEAFGEFRTGKTQLSHTLCVTAQLPGAGGYPGGKIIFIDTENTFRPDRLRDIADRFNVDHDAVLDNVLYARAYTSEHQMELLDYVAAKFHEEAGIFKLLIIDSIMALFRVDFSGRGELAERQQKLAQMLSRLQKISEEYNVAVFVTNQMTADPGATMTFQADPKKPIGGHILAHASTTRISLRKGRGELRIAKIYDSPEMPENEATFAITAGGIGDAKE
